± gives the uncertainty stated by the source.
Assay: self-splicing fitness, log relative to wild type (ln ratio); higher = more splicing; Tetrahymena group I intron in knt gene, E. coli kanamycin selection, DiMSum; sequences stand for … in CUCUCU…GGAGGGAAAAGUUAUCAGGCAUGCACCUGGUAGCUAGUCUUUAAACCAAUAGAUUGCAUCGGUUUAAAAGGCAAGACCGUCAAAUUGCGGGAAAGGGGUCAACAGCCGUUCAGUACCAAGUCUCAGGGGAAACUUUGAGAUGGCCUUGCAAAGGGUAUGGUAAUAAGCUGACGGACAUGGUCCUAACCACGCAGCCAAGUCCUAAGUCAACAGAUCUUCUGUUGAUAUGGAUGCAGUUCACAGACUAAAUGUCGGUCGGGGAAGAUGUAUUCUUCUCAUAAGAUAUAGUCGGACCUCUCCUUAAUGGGAGCUAGCGGAUGAAGUGAUGCAACACUGGAGCCGCUGGGAACUAAUUUGUAUGCGAAAGUAUAUUGAUUAGUUUUGGAGUACUCGUGGUCG
Method in brief: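 Fitness was computed with DiMSum as the error-weighted combination of replicate fold changes, kanamycin versus none, each normalised to wild type. The library randomised all eight intron nucleotides of the P1ex region, with the intron placed in the knt kanamycin-resistance gene on pET-22b(+) in E. coli BL21(DE3). Six replicate transformations were grown overnight at 37°C or 30°C on LB agar with or without 25 μg/mL kanamycin, plus 100 μg/mL carbenicillin, 50 μM IPTG and 0.2% rhamnose. Pooled colonies were amplicon-sequenced on an Illumina HiSeq 2500.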

Sequence	self-splicing fitness (ln) (30 °C)	self-splicing fitness (ln) (37 °C)
UUUCAGCAAUAUUACGACAC	-2.24 ± 0.16	-2.97 ± 0.22
UGGGAGCAAUAUUACGCUGG	-1.91 ± 0.29	-1.55 ± 0.35
GAUAAGCAAUAUUACGGACG	-1.08 ± 0.13	-0.201 ± 0.14
ACGAAGCAAUAUUACGUGGG	-2.76 ± 0.16	-2.84 ± 0.17
UGCGAGCAAUAUUACGGUUA	-0.797 ± 0.11	-0.443 ± 0.12
GCUAAGCAAUAUUACGGUCA	-0.887 ± 0.13	-0.914 ± 0.15
AAUCAGCAAUAUUACGGAGU	-0.488 ± 0.047	0.346 ± 0.064
UGCCAGCAAUAUUACGCGUU	-1.67 ± 0.069	-0.989 ± 0.082
GGGUAGCAAUAUUACGUCCC	-0.987 ± 0.29	–
UAGAAGCAAUAUUACGUGAC	-3.33 ± 0.24	-2.28 ± 0.28
AAUCAGCAAUAUUACGCUAU	-0.347 ± 0.084	0.0833 ± 0.12
UUCAAGCAAUAUUACGCAUU	-3.98 ± 0.26	-1.27 ± 0.13
CGUUAGCAAUAUUACGCGCC	-2.21 ± 0.39	-1.05 ± 0.27
AUAAAGCAAUAUUACGGUGG	-2.61 ± 0.1	-1.4 ± 0.12
AAAGAGCAAUAUUACGAAGC	-1.67 ± 0.21	-2.04 ± 0.47
UUAAAGCAAUAUUACGGCAG	0.129 ± 0.086	0.214 ± 0.11
CGAAAGCAAUAUUACGUUGA	-3.72 ± 0.18	-2.28 ± 0.16
GGCUAGCAAUAUUACGGGUA	-0.679 ± 0.12	-0.368 ± 0.11
GAAAAGCAAUAUUACGGCAU	-0.258 ± 0.066	0.329 ± 0.083
GUGUAGCAAUAUUACGACGG	-3.88 ± 0.31	-0.904 ± 0.15
CGUCAGCAAUAUUACGUAAU	-2.93 ± 0.17	-1.2 ± 0.13
CGAUAGCAAUAUUACGAACG	-0.892 ± 0.11	0.0703 ± 0.12
CCACAGCAAUAUUACGCAGG	-3.97 ± 0.27	-2.35 ± 0.23
CGGAAGCAAUAUUACGAACA	-1.18 ± 0.12	-0.826 ± 0.13
CGUUAGCAAUAUUACGGUUG	-0.758 ± 0.11	0.388 ± 0.13

Sequence	self-splicing fitness (ln) (30 °C)	self-splicing fitness (ln) (37 °C)
CAGGAGCAAUAUUACGUCUA	-1.43 ± 0.13	-1.68 ± 0.14
AACGAGCAAUAUUACGCGGA	-2.97 ± 0.2	-2.01 ± 0.2
UCACAGCAAUAUUACGGGGA	-1.15 ± 0.065	0.015 ± 0.076
UUUAAGCAAUAUUACGUAGC	–	-2.34 ± 0.36
UGACAGCAAUAUUACGUUAU	-3.65 ± 0.19	-3.04 ± 0.21
AAGCAGCAAUAUUACGGGGA	-3.53 ± 0.33	-1.11 ± 0.13
UAUCAGCAAUAUUACGUGCC	-4.21 ± 0.34	-1.95 ± 0.16
UUCCAGCAAUAUUACGACUA	-0.435 ± 0.097	-0.117 ± 0.085
UUGUAGCAAUAUUACGGGGG	-2.82 ± 0.41	–
AUCAAGCAAUAUUACGCAUA	-1.94 ± 0.099	-0.751 ± 0.084
UAACAGCAAUAUUACGUAUG	-1.52 ± 0.058	-0.164 ± 0.075
AGGCAGCAAUAUUACGGCCG	-1.12 ± 0.13	-0.985 ± 0.17
CCCGAGCAAUAUUACGGUGG	-3.06 ± 0.13	-3.2 ± 0.18
UCCAAGCAAUAUUACGCUAA	-2.62 ± 0.14	-1.36 ± 0.13
ACGAAGCAAUAUUACGUUUC	-2.31 ± 0.11	-2.18 ± 0.17
UUUGAGCAAUAUUACGGUGA	-2.07 ± 0.15	-2.46 ± 0.18
CUGAAGCAAUAUUACGGUUC	-3.05 ± 0.18	-3.5 ± 0.3
UAAAAGCAAUAUUACGUACU	-0.876 ± 0.073	-0.401 ± 0.092
GCCCAGCAAUAUUACGUCCU	-1.19 ± 0.11	-0.722 ± 0.17
UUGGAGCAAUAUUACGGUAG	-3.58 ± 0.2	-1.99 ± 0.18
UACUAGCAAUAUUACGAUAG	-1.44 ± 0.12	-0.923 ± 0.14
GAGCAGCAAUAUUACGGCAA	-0.276 ± 0.062	-0.126 ± 0.072
AAUUAGCAAUAUUACGCACU	-0.0585 ± 0.12	-0.106 ± 0.15
CUCCAGCAAUAUUACGUUCG	-3.41 ± 0.13	-2.39 ± 0.17
CGUCAGCAAUAUUACGCGCG	-4.06 ± 0.39	-2.19 ± 0.36

Sequence	self-splicing fitness (ln) (30 °C)	self-splicing fitness (ln) (37 °C)
UCCGAGCAAUAUUACGAGUG	-2.41 ± 0.09	-1.34 ± 0.094
UAACAGCAAUAUUACGAAUC	-2.67 ± 0.18	-2.66 ± 0.29
CAAGAGCAAUAUUACGUAAG	-0.178 ± 0.084	-0.217 ± 0.12
CCAUAGCAAUAUUACGAUCA	-2.94 ± 0.18	-3.23 ± 0.29
UAGGAGCAAUAUUACGACUC	-2.01 ± 0.28	–
ACUGAGCAAUAUUACGGAGA	-3.46 ± 0.21	-3.08 ± 0.27
GGAGAGCAAUAUUACGGGAG	-4.1 ± 0.21	-2.37 ± 0.23
AUCGAGCAAUAUUACGCCUC	-2.06 ± 0.39	-1.98 ± 0.45
GCUAAGCAAUAUUACGUAGG	-1.34 ± 0.059	-0.249 ± 0.087
CAUGAGCAAUAUUACGACCG	-0.701 ± 0.12	0.276 ± 0.14
CGCUAGCAAUAUUACGGCCU	-0.677 ± 0.073	-0.609 ± 0.1
UGCGAGCAAUAUUACGGCUU	-1.76 ± 0.2	-2.61 ± 0.33
GAGGAGCAAUAUUACGUUGA	-3.73 ± 0.42	-2.24 ± 0.33
UACUAGCAAUAUUACGAUCU	-1.31 ± 0.13	-0.847 ± 0.14
GCAGAGCAAUAUUACGGUUC	-2.66 ± 0.28	-1.58 ± 0.24
GCGAAGCAAUAUUACGGCAA	-0.999 ± 0.16	-0.804 ± 0.16
CCCAAGCAAUAUUACGCCUA	-2.65 ± 0.26	-2.8 ± 0.31
CAUAAGCAAUAUUACGAUAU	-3.41 ± 0.28	-2.86 ± 0.32
UCUCAGCAAUAUUACGAGAU	-4.62 ± 0.46	-2.85 ± 0.35
GAAUAGCAAUAUUACGCAAA	-3.06 ± 0.38	-1.75 ± 0.27
UAUAAGCAAUAUUACGGUGC	-2.46 ± 0.19	-3.09 ± 0.3
UGUUAGCAAUAUUACGCCGU	-1.98 ± 0.44	-0.747 ± 0.42
CAGAAGCAAUAUUACGGUUC	-3.71 ± 0.19	-2.49 ± 0.2
GGCCAGCAAUAUUACGCAAG	-3.48 ± 0.25	-3.15 ± 0.43
CUAUAGCAAUAUUACGCCAC	–	-1.21 ± 0.42

Sequence	self-splicing fitness (ln) (30 °C)	self-splicing fitness (ln) (37 °C)
CGAUAGCAAUAUUACGGAGG	-1.28 ± 0.14	-1.17 ± 0.15
GCGGAGCAAUAUUACGCAGU	-3.68 ± 0.45	-1.79 ± 0.39
UUUGAGCAAUAUUACGACGG	-0.966 ± 0.16	-0.751 ± 0.23
UGAUAGCAAUAUUACGACGU	-2.71 ± 0.24	-1.17 ± 0.37
AGUCAGCAAUAUUACGCAGG	-2.85 ± 0.26	-2.92 ± 0.43
GUUCAGCAAUAUUACGAUGC	-0.236 ± 0.17	0.2 ± 0.14
UAGGAGCAAUAUUACGUUGA	-2.46 ± 0.18	-1.19 ± 0.17
GGCGAGCAAUAUUACGGUGA	-2.82 ± 0.089	-1.39 ± 0.081
GUACAGCAAUAUUACGGUGA	-1.75 ± 0.14	-0.943 ± 0.12
GCCAAGCAAUAUUACGGGUU	-2.48 ± 0.09	-1.79 ± 0.1
UCUAAGCAAUAUUACGUUCA	-2.37 ± 0.17	-1.56 ± 0.15
AUAAAGCAAUAUUACGAUAC	-1.39 ± 0.12	-0.441 ± 0.14
AAGUAGCAAUAUUACGGUCG	-2.14 ± 0.13	-1.03 ± 0.12
CCCCAGCAAUAUUACGAGUC	-3.78 ± 0.14	-3.03 ± 0.17
UCCCAGCAAUAUUACGAGCG	-3.32 ± 0.33	-2.02 ± 0.26
GGUGAGCAAUAUUACGUACG	-0.28 ± 0.23	-0.434 ± 0.25
UCGUAGCAAUAUUACGAUCU	-1.92 ± 0.3	-1.67 ± 0.37
GCUGAGCAAUAUUACGGGCA	-1.76 ± 0.39	-2.69 ± 0.36
CUAGAGCAAUAUUACGCGGA	–	-1.33 ± 0.36
CCGGAGCAAUAUUACGUAGU	-4.17 ± 0.25	-3.22 ± 0.22
CUACAGCAAUAUUACGUCAA	-3.91 ± 0.19	-1.82 ± 0.14
UACUAGCAAUAUUACGUAAU	-2.63 ± 0.17	-1.93 ± 0.22

Reference: the supplement of paper PMC7877785
